# Results: the DeepSol protein solubility set
# Test: soluble on expression in E. coli; label from the status in PepcDB or PDB records
row,Sequence,soluble on expression in E. coli
1,MDKLNKITVPASQKLRQLQKMVHDIKNNEGGIMNKIKKLKVKAPPSVPRRDYASESPADEEQQWSDDFDSDYENPDEHSDSEMYVMPAEENADDSYEPPPVEQETRPVHPALPFARGEYIDNRSSQRHSPPFSKTLPSKPSWPSEKARLTSTLPALTALQKPQVPPKPKGLLEDEADYVVPVEDNDENYIHPTESSSPPPEKAPMVNRSTKPNSSTPASPPGTASGRNSGAWETKSPPPAAPSPLPRAGKKPTTPLKTTPVASQQNASSVCEEKPIPAERHRGSSHRQEAVQSPVFPPAQKQIHQKPIPLPRFTEGGNPTVDGPLPSFSSNSTISEQEAGVLCKPWYAGACDRKSAEEALHRSNKDGSFLIRKSSGHDSKQPYTLVVFFNKRVYNIPVRFIEATKQYALGRKKNGEEYFGSVAEIIRNHQHSPLVLIDSQNNTKDSTRLKYAVKVS,not soluble
2,MDKNRVFGQRLRQSIQNYFSSPWLLYTAKAEALLDLRDDEAMLNEMEAVGELPMALEYESLTDVQTQIVTAIQAELAHFRNTAQPINLGAVLQEQLARYPQSRHFDVARIIVDQAVKLGMASQDHQAVYPVWQPIDDFSAAVQAHLIDQYDK,soluble
3,MDLIFSLGVMIMPLTPPASPKTERRSEEDNQQTNQQGNEQGNQQPRSSILTLFGFTPNALVMPCPHGHGHFHIMDIQADDTLVFATMNGSPEIMSLLALQFLMQNVNLNLDDMLAAETDAKEAEEKEEQELSSSESVNEEKEEAEFSSSESENEEKEEENEESSRFTM,not soluble
4,MDLMEEMWISRPQRRMTKLSDLSDGSIARIKFYNANKEYTVDSFKIMFAEYQKSIYCNQEVIGVCHSISDYSYIVDYINNSHFRNELDIFTPEFDKKRTHHITSHKSDKDTLQVRVISNEGVIKSYDMSAIEITFEKMYHIIDKERNGYRSGQL,not soluble
5,MDLQTSSKFLQNQLAHLFQCERDSADVENSEGCFSTGNDPAFKDERLRFEFHTEPFNRRYLLRVVKVPP,not soluble
6,MDLSIFKNARAKPVPRPAPAGAASGLHDPLAPTIFHEAWWLDASAPDGWSETLVRADNRIVGRLPYMILRKPFGQTSCEMPKFAHFLGPAVAPGPGARANRALKEAQIVRELHEQLPPTGNLYMRMHRGVTDTMVHAEAGLHMLVNFTFEIAPGCEQAIWAGMRDKTRNIIRRAQEKHCVSDTLDPRDFAACYRRNVDEAGHESYYETDEIVRVCTAALERGRGRILSATGPDGGLAAAIFTIWDATSCYYLLATRSRGEDHGATSLLLWEAIRHANRMGLIFDFDGLYTRGNRVFFTGFGGTVHPRYVVCGSTRTYRATAALSKALSRLRRP,not soluble
7,MDLTVPVEYSRAGNTTHSGNVHAIQDDEKFSYGTAGFRFKSEKLPFIVFRCAYVASLRARQLNSAIGVMITASHNPSCDNGVKLVDPSGDMLNEQWEIYATEVVNATDAELPAAVRALEKQISVGKTQLSRVVCGMDTRCSGPCLMNAARAGAALFNVQFDDIGVVSTPMLHYAVKAFNEPKFAEPTHDGYYSAIADSFKKLYEITEEPKDSRYQPKVIVDCANGVGAPRFRNLLERIPSSLLEVEFRNESEELNQGCGADFVKISQKLPANFSPTAAEPKCASFDGDADRLMYFRAKASENSESNDAELFDGDKIAVLIVTYIREQLKDYENSTPMERLRLGIVQTAYANGSSTRYIREKLGIEPIIVPTGVKHLHEAASEFDIGIYFEANGHGTVVFSEIFDRIIRRTPTESLPLRRLALFSRVINETVGDAFADLLAVEAVLRHYGWSMDDWAEKLYRDVPNVQIKVPVIDRSIFKTTNAEQTLVKPVGIQKMIDTDVAKYNNSRAFIRPSGTENIVRVYAEADTVENTLQLGKSLEQVVLNLCNSN,not soluble
8,MDMDEKDVVETEEESFAELFEKSNSETQRLRPGSKVEGKILKIGAEWVFIDIGKKGEGVMERKELQDAEGNLTVAEGDTITAWFTGSVRNEMRFTTKLGAGAAANAQLEEAHRSGIPVEGFVVKEIKGGFEVRLSGTTRAFCPFSQISLRRAENPAEFVGKHLLFKVTEYSERGRNIVLSHRQILEEEQRVKREALKEVLLEGMTVTGTVTRLADFGAFVDLGGVDGLIPVSEVGWTRVKHVRDVLSVGEQVSVVIKKIDWEAGKISLSLKDTLADPWTTVAEQFPEGSYHTGTVARLAAFGAFVTLAPGIDGLIHISKLGKGKRINHPSDVLKEGETVEVKVDGVDREARRLSLALAEVSRAAEEEEKSVASFRQQATSSSKESMGSFGDLLKAKIEEKRLEHHHHHH,not soluble
9,MDNCNAWDKLLSQNESTINSTETATITAIIYSPSSKTLHQFINICFPEGSNSILDTTLINYATIGWTNDLKENYSVDVYTLIRNTDDALDLLKPFLQEHSSKVRWLILLDWTLNDQKLWLNELSYAFNKIKQLNDDNEFSVWCLNSGEILNLQRHTTVWQSVHIDFILQTLRSFCYFNDSSLFYICEDHTEEKREEAQRLKYQELLKHFCEDRDMKDHIEMVKRSEILIPKGCDSIGLIKTVDERFEPTEVKEQHFLARYMDFIPTIDKIREDRKTTSGIDLDKLYPLEVFKVNIQEELGKMFAKYRENSRI,soluble
10,MDNDGINADPMELEKFSQLAHHWWDPNSEFKPLHEINPLRLNYIDEIIGGLSEKTVIDVGCGGGILSESMAARGASVTGIDLSDKALKVAKLHLLESGNQVDYRKITVEALATERPRYYDVVTCMEMLEHVPDPASVIQSCARLVKSGGWVFFSTLNRNPKSYLYAIIGAEYILRLLPRGTHEYAKFIKPSELAHMARSAGLMESGIVGMTYNPITKVYALEADTSVNYIMAFRA,not soluble
11,MDNIKIIVASDSIGETAELVARAGVSQFNPKQCKHEFLRYPYIESFENVDEVIQVAKDTNAIIVYTLIKPEIKKYMISKVNEHALKSVDIMGPLMELLSNSIEETPYYEPGMVHRLDDAYFKKIDAIEFAVKYDDGKDPKGLPKADIVLLGISRTSKTPLSQYLAHKSYKVMNIPIVPEVTPPDGLFNVDPSKCIALKISEEKLNRIRKERLKQLGLGDKARYATEARIQEELDYFEKLVDKIGCPVIDVSDKAIEETANDIIHFIEQNKSKLEHHHHHH,soluble
12,MDNIVTQNIKFESEPNYYLRGYHLFDISPLNGLKCEITDEFETDKIHLKIKLDWDQQEIKKITGFIQLSYDGHQLKPIDSNFDKRGGICIMTVPKYINAYRWSFSFDLKLHRYPAKPPQISHDLNPQVRSYDTMFEPSRKHDAVLLIGEKKLHVNKAFLSYHSDYFCDLFAEKFDEKNGIPIENVTYENFGLLMSIIYPEAAFSNHQNAEVLLELGNRFKIPAVMRHVENQIIRDTKFPNERLIFLADKYELQKLLAMEIQKMESFDQAKKFKGSDDYSQLSDATKAKILDRLIELS,not soluble
13,MDNKVILVGGFHEIIELCEDNDIEIAGIIDNYLTNDTYWGYPIIGTDDKAKVLFETYKNVPVLITPDVPHVRYKLYHYYKSIGFQVASLISRDASISRSAIIGEGTIIQRGANLSSNIKIGQMVKVNTNANIMHDCLIGNYVTVAPNAVLLGKVEIDDKAYIGANATLLPSVKIGENVTVGAGSVVTKSVRLEHHHHHH,not soluble
14,MDNLLAQKKPINILLLGTDTGAMGRSWKGRTDTIMMMAINPKTNSTSIVSIPRDSNAIFPDFPQYGVTKINSAYTLGGVGETVKTLDKYYSVPIDGYIMINMGGLKKAIDQVGGIDVTSPLTFDNMGYHFQEGKTYHMDGKKALAFAQLRHGDPRQDYGRQDRDRRVVMALLKKSISPTTLLNTKFLNSISSEMQTDLTMNQMYKIGMDYRHATDNLSQDHAQGVSKQTQNPKFGTMEIEVVSRQERQRVSDKLRAALGLPKVRVAANSASYVMNQLEHHHHHH,soluble
15,MDNLLIQVTGKKRVVLFSPRDAQYLYLKGTKSEVLNIDNPDLAKYPLFSKARRYECSLEAGDVLFIPALWFHNVISEEFGVGVNIFWKHLPSECYDKTDTYGNKDPTAASRAAQILDRALKTLAELPEEYRDFYARRMVLHIQDKAYSKNSE,not soluble
16,MDNNLEIKDLEKIAKKVRYNIVKMVGLAKSGHPGGSLSATDIIVALYFKLMNYSPDNPYKKDRDRFVLSKGHAAPALYAVLSELGIIEEEELWKLRRLEGKLQGHPSMDTPGVEICTGSLGQGFSAAVGMALGCRLDKLNNYVYVLLGDGECQEGIVWEAAMAAAHYKLDNLIAFIDRNKLQIDGCTEDVMSLGDIKAKFEAFGWDVFEIDGHNFEEIINTVEKAKSMKNGKPKMIIAYTVKGKGVSFMENNVAFHGKAPNEEQLKQALEELSE,soluble
17,MDNPVKLDTPVSGWRAGDGSAANYRQVVNYPASSVNVAADQATTARIRGAIESQPKDRPATLVVNGVSMPLKVDADGSFDRPFAFPSGSNSVEVRNAAGQSRRVQFYHGGGGGEVPAKLRVLLSWDSDNTDLDLHLVTPDGDHVWYGNRSLANGATLDVDVTTGYGPEIIATPTPQKGPYLVYVNYFGGGYGSSEDGAEQAAQDLTTARITLVTEEGTPNEKQETFLVPMRKPGELTLVKRFSYPLEHHHHHH,soluble
18,MDNVDFSKDIRDYSGLELAFLGDAIWELEIRKYYLQFGYNIPTLNKYVKAKVNAKYQSLIYKKIINDLDEEFKVIGKRAKNSNIKTFPRSCTVMEYKEATALEAIIGAMYLLKKEEEIKKIINIVIKGELEHHHHHH,soluble
19,MDPDNRVRQRAVKTLGKRGNPDVLEDLMEALKDSRQPVQEAASEALRKIIAASDSVPVLVKALDATDRNVRKAAIEALWKAGTPEAIPPLLRELDDADWYLRSRAADALADIASPEAALGLIKVMDIHDSPVKKIIVNALGKIGTVEAVEGLVKALEDLEHHHHHH,soluble
20,MDPFRFQVEARAGRARVGRLFTPHGAVETPLFMPVGTAGSVKGLMPKDLEAIGSQVLLTNTYHLLLRPGPERVRALGGLHGFAGWKGPWLTDSGGFQVMSLGHMRRIDEEGVVFQSHLDGRLIKLTPERSIAVQEALGADLIMAFDECPPYPSPREYLEASLERTLRWLERSLKAKTRPDQALFGIAQGGTDPELRRRSTLETIRFDLPGYAIGGLAVGEPKEAMFAMVELSTRLLPEDRPRYLMGVGHPEDLVAAMGLGVDLFDCVYPTRTGRFGSALVPEGRLNLKNARFLEDRRPLEEGCDCYTCQTFGRAYLAHLVRAGEMLGGILLSLHNLRHLHRLTEAARQAIREGRYGDFAREFARRRFGREVPPWFREALAAGGHG,soluble
21,MDPKPINEGMLLEDHDHGMPEEEEITEDDMNGIHNIEEDTRTISEIAMELHHPNKSQVLLDQERFLPIANVVRIMKTQMDPQAKLAKDAKECAQECVSEFISFIASEAAEICNITKRKTITADDLLTAMEATGFDNYAEPMRIFLQKYRQAHKITGPIHRTHPDYVRPPQFQMDPFVRPLFFDTEQGRRCTETQYVINGSEIVKNAPLGEEWNEQTGTLNTRADGYYMEEPMEPMPMEEVEIEEHEEIIEQDSLGAIALEQQGQMQIYVDPKTKQHFAAKETPNGMELYPLIIQDTPLQLENVSGPNQFVMNMPDGRAIPHGMGQEEPQPVSSSSVMRKIGQNPSSYAQQHHHVSHVEQHDDVEYEEEEEVDQVEEDTVPVPIAPRPAATRVQPKRTPTKRKK,not soluble
